# Laboratory results taken from the supplement of paper PMC10567573.
# B1: TRAF3IP2 (parent)
# chain: KEHVPTWLQNTHVYSWPKNKKNIL
# Variants of: B1
# Test: protein stability index of a GFP-peptide fusion (GPS, HEK-293T) (PSI 1-6); higher = more stable
# Settings: c terminus: a fixed tail appended
# 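Further: lentivirally expressed fusions sorted by FACS into six bins by GFP to DsRed ratio, PSI derived from sequencing read proportions per bin multiplied by bin number.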
row,Variant,protein stability index
1,KEHVPTWLQNTHVVSWPKNKKNIL,2.69
2,KEHVPTWLQNTHVFSWPKNKKNIL,2.05
3,KEHVPTWLQNTHVKSWPKNKKNIL,2.49
4,KEHVPTWLQNTHVQSWPKNKKNIL,3.06
5,KEHVPTWLQNTHVRSWPKNKKNIL,2.73
6,KEHVPTWLQNTHVNSWPKNKKNIL,3.24
7,KEHVPTWLQNTHVSSWPKNKKNIL,3.4
8,KEHVPTWLQNTHVDSWPKNKKNIL,3
9,KEHVPTWLQNTHVGSWPKNKKNIL,3.05
10,KEHVPTWLQNTHVCSWPKNKKNIL,2.63
11,KEHVPTWLQNTHVMSWPKNKKNIL,2.76
12,KEHVPTWLQNTHVHSWPKNKKNIL,3.46
13,KEHVPTWLQNTHVWSWPKNKKNIL,1.98
14,KEHVPTWLQNTHVISWPKNKKNIL,3.71
15,KEHVPTWLQNTHVTSWPKNKKNIL,3
16,KEHVPTWLQNTHVASWPKNKKNIL,3.14
17,KEHVPTWLQNTHVESWPKNKKNIL,3.14
18,KEHVPTWLQNTHVLSWPKNKKNIL,2.29
19,KEHVPTWLQNTHVPSWPKNKKNIL,2.98
20,KEHVPTWLQNTHVYSWPKNKKEIL,2.64
21,KEHVPTWLQNTHVYSWPKNKKFIL,1.67
22,KEHVPTWLQNTHVYSWPKNKKAIL,2.41
23,KEHVPTWLQNTHVYSWPKNKKDIL,2.04
24,KEHVPTWLQNTHVYSWPKNKKCIL,1.71

row,Variant,protein stability index
1,KEHVPTWLQNTHVYSWPYNKKNIL,3.3
2,KEHVPTWLQNTHVYSWPVNKKNIL,2.14
3,KEHVPTWLQNTHVYSWPFNKKNIL,2.12
4,KEHVPTWLQNTHVYSWPENKKNIL,2.88
5,KEHVPTWLQNTHVYSWPTNKKNIL,2.52
6,KEHVPTWLQNTHVYSWPNNKKNIL,2.81
7,KEHVPTWLQNTHVYSWPPNKKNIL,3.12
8,KEHVPTWLQNTHVYSWPQNKKNIL,3.64
9,KEHVPTWLQNTHVYSWPLNKKNIL,2.41
10,KEHVPTWLQNTHVYSWPHNKKNIL,2.37
11,KEHVPTWLQNTHVYSWPMNKKNIL,2.42
12,KEHVPTWLQNTHVYSWPANKKNIL,2.66
13,KEHVPTWLQNTHVYSWPCNKKNIL,2.33
14,KEHVPTWLQNTHVYSWPWNKKNIL,1.91
15,KEHVPTWLQNTHVYSWPGNKKNIL,2.53
16,KEHVPTWLQNTHVYSWPDNKKNIL,2.17
17,KEHVPTWLQNTHVYSWPRNKKNIL,3.38
18,KEHVPTWLQNTHVYSWPINKKNIL,2.05
19,KEHVPTWLQNTHVYSWPSNKKNIL,2.1
20,KEHVPTWLQNTHVYYWPKNKKNIL,2.27
21,KEHVPTWLQNTHVYNWPKNKKNIL,2.21
22,KEHVPTWLQNTHVYFWPKNKKNIL,1.97
23,KEHVPTWLQNTHVYPWPKNKKNIL,2.7
24,KEHVPTWLQNTHVYGWPKNKKNIL,2.99

row,Variant,protein stability index
1,KEHVPTWLQNTHVYWWPKNKKNIL,1.68
2,KEHVPTWLQNTHVYAWPKNKKNIL,3.19
3,KEHVPTWLQNTHVYVWPKNKKNIL,2.43
4,KEHVPTWLQNTHVYHWPKNKKNIL,2.27
5,KEHVPTWLQNTHVYQWPKNKKNIL,2.49
6,KEHVPTWLQNTHVYLWPKNKKNIL,2.22
7,KEHVPTWLQNTHVYDWPKNKKNIL,2.89
8,KEHVPTWLQNTHVYIWPKNKKNIL,1.7
9,KEHVPTWLQNTHVYRWPKNKKNIL,3.12
10,KEHVPTWLQNTHVYKWPKNKKNIL,2.77
11,KEHVPTWLQNTHVYCWPKNKKNIL,2.15
12,KEHVPTWLQNTHVYMWPKNKKNIL,2.23
13,KEHVPTWLQNTHVYEWPKNKKNIL,2.6
14,KEHVPTWLQNTHVYTWPKNKKNIL,2.54
15,KEHVPTWLQNTHPYSWPKNKKNIL,3.07
16,KEHVPTWLQNTHHYSWPKNKKNIL,3.78
17,KEHVPTWLQNTHMYSWPKNKKNIL,2.88
18,KEHVPTWLQNTHAYSWPKNKKNIL,2.5
19,KEHVPTWLQNTHRYSWPKNKKNIL,3
20,KEHVPTWLQNTHDYSWPKNKKNIL,3.88
21,KEHVPTWLQNTHIYSWPKNKKNIL,2.51
22,KEHVPTWLQNTHCYSWPKNKKNIL,2.49
23,KEHVPTWLQNTHQYSWPKNKKNIL,2.31
24,KEHVPTWLQNTHSYSWPKNKKNIL,2.75

row,Variant,protein stability index
1,KEHVPTWLQNTHNYSWPKNKKNIL,2.11
2,KEHVPTWLQNTHEYSWPKNKKNIL,2.52
3,KEHVPTWLQNTHFYSWPKNKKNIL,2.65
4,KEHVPTWLQNTHTYSWPKNKKNIL,2.66
5,KEHVPTWLQNTHWYSWPKNKKNIL,2.46
6,KEHVPTWLQNTHLYSWPKNKKNIL,2.44
7,KEHVPTWLQNTHKYSWPKNKKNIL,3.2
8,KEHVPTWLQNTHYYSWPKNKKNIL,2.62
9,KEHVPTWLQNTHVYSWSKNKKNIL,2.81
10,KEHVPTWLQNTHVYSWHKNKKNIL,2.21
11,KEHVPTWLQNTHVYSWEKNKKNIL,2.23
12,KEHVPTWLQNTHVYSWDKNKKNIL,2.71
13,KEHVPTWLQNTHVYSWKKNKKNIL,2.31
14,KEHVPTWLQNTHVYSWAKNKKNIL,2.22
15,KEHVPTWLQNTHVYSWQKNKKNIL,2.95
16,KEHVPTWLQNTHVYSWWKNKKNIL,2.1
17,KEHVPTWLQNTHVYSWYKNKKNIL,2.03
18,KEHVPTWLQNTHVYSWVKNKKNIL,1.98
19,KEHVPTWLQNTHVYSWTKNKKNIL,2.29
20,KEHVPTWLQNTHVYSWCKNKKNIL,2.36
21,KEHVPTWLQNTHVYSWIKNKKNIL,2.1
22,KEHVPTWLQNTHVYSWFKNKKNIL,2.18
23,KEHVPTWLQNTHVYSWNKNKKNIL,1.95
24,KEHVPTWLQNTHVYSWLKNKKNIL,1.85

row,Variant,protein stability index
1,KEHVPTWLQNTHVYSWGKNKKNIL,2.17
2,KEHVPTWLQNTHVYSDPKNKKNIL,3.53
3,KEHVPTWLQNTHVYSKPKNKKNIL,2.81
4,KEHVPTWLQNTHVYSNPKNKKNIL,3.39
5,KEHVPTWLQNTHVYSTPKNKKNIL,3.68
6,KEHVPTWLQNTHVYSSPKNKKNIL,3.08
7,KEHVPTWLQNTHVYSYPKNKKNIL,3
8,KEHVPTWLQNTHVYSAPKNKKNIL,3.35
9,KEHVPTWLQNTHVYSVPKNKKNIL,2.88
10,KEHVPTWLQNTHVYSGPKNKKNIL,3.55
11,KEHVPTWLQNTHVYSCPKNKKNIL,2.88
12,KEHVPTWLQNTHVYSQPKNKKNIL,3.36
13,KEHVPTWLQNTHVYSHPKNKKNIL,3.39
14,KEHVPTWLQNTHVYSMPKNKKNIL,2.75
15,KEHVPTWLQNTHVYSPPKNKKNIL,3.82
16,KEHVPTWLQNTHVYSLPKNKKNIL,3.02
17,KEHVPTWLQNTHVYSFPKNKKNIL,2.7
18,KEHVPTWLQNTHVYSIPKNKKNIL,3.05
19,KEHVPTWLQNTHVYSRPKNKKNIL,3.9
20,KEHVPTWLQNTHVYSEPKNKKNIL,3.77
21,KEHVPTWLQNTIVYSWPKNKKNIL,2.17
22,KEHVPTWLQNTWVYSWPKNKKNIL,1.82
23,KEHVPTWLQNTRVYSWPKNKKNIL,3.02
24,KEHVPTWLQNTYVYSWPKNKKNIL,2.6

row,Variant,protein stability index
1,KEHVPTWLQNTKVYSWPKNKKNIL,2.51
2,KEHVPTWLQNTMVYSWPKNKKNIL,2.42
3,KEHVPTWLQNTFVYSWPKNKKNIL,2.13
4,KEHVPTWLQNTGVYSWPKNKKNIL,2.8
5,KEHVPTWLQNTTVYSWPKNKKNIL,2.82
6,KEHVPTWLQNTVVYSWPKNKKNIL,2.05
7,KEHVPTWLQNTLVYSWPKNKKNIL,1.79
8,KEHVPTWLQNTQVYSWPKNKKNIL,2.55
9,KEHVPTWLQNTPVYSWPKNKKNIL,2.94
10,KEHVPTWLQNTNVYSWPKNKKNIL,2.62
11,KEHVPTWLQNTSVYSWPKNKKNIL,3.17
12,KEHVPTWLQNTHVYSWPKNKLNIL,2.18
13,KEHVPTWLQNTHVYSWPKNKRNIL,2.05
14,KEHVPTWLQNTHVYSWPKNKWNIL,1.97
15,KEHVPTWLQNTHVYSWPKNKINIL,2.12
16,KEHVPTWLQNTHVYSWPKNKVNIL,2.03
17,KEHVPTWLQNTHVYSWPKNKDNIL,2.73
18,KEHVPTWLQNTHVYSWPKNKTNIL,2.65
19,KEHVPTWLQNTHVYSWPKNKYNIL,1.83
20,KEHVPTWLQNTHVYSWPKNKMNIL,1.95
21,KEHVPTWLQNTHVYSWPKNKGNIL,2.31
22,KEHVPTWLQNTHVYSWPKNKENIL,2.68
23,KEHVPTWLQNTHVYSWPKNKFNIL,1.8
24,KEHVPTWLQNTHVYSWPKNKQNIL,2.27

row,Variant,protein stability index
1,KEHVPTWLQNTHVYSWPKNKNNIL,1.93
2,KEHVPTWLQNTHVYSWPKNKANIL,2.08
3,KEHVPTWLQNTHVYSWPKNKSNIL,2.24
4,KEHVPTWLQNTHVYSWPKNKCNIL,2.3
5,KEHVPTWLQNTHVYSWPKNKPNIL,2.79
6,KEHVPTWLQNTHVYSWPKNKHNIL,2.17
7,KEHVPTWLQNTHVYSWPKGKKNIL,2.56
8,KEHVPTWLQNTHVYSWPKAKKNIL,2.81
9,KEHVPTWLQNTHVYSWPKQKKNIL,2.51
10,KEHVPTWLQNTHVYSWPKYKKNIL,2.03
11,KEHVPTWLQNTHVYSWPKWKKNIL,1.4
12,KEHVPTWLQNTHVYSWPKHKKNIL,2.19
13,KEHVPTWLQNTHVYSWPKCKKNIL,2.98
14,KEHVPTWLQNTHVYSWPKIKKNIL,2.08
15,KEHVPTWLQNTHVYSWPKTKKNIL,2.01
16,KEHVPTWLQNTHVYSWPKDKKNIL,3.03
17,KEHVPTWLQNTHVYSWPKRKKNIL,2.3
18,KEHVPTWLQNTHVYSWPKSKKNIL,2.61
19,KEHVPTWLQNTHVYSWPKEKKNIL,2.72
20,KEHVPTWLQNTHVYSWPKVKKNIL,2.34
21,KEHVPTWLQNTHVYSWPKPKKNIL,2.43
22,KEHVPTWLQNTHVYSWPKKKKNIL,2.06
23,KEHVPTWLQNTHVYSWPKMKKNIL,1.97
24,KEHVPTWLQNTHVYSWPKLKKNIL,1.55

row,Variant,protein stability index
1,KEHVPTWLQNTHVYSWPKFKKNIL,2.02
2,KEHVPTWLQNTHVYSWPKNPKNIL,2.72
3,KEHVPTWLQNTHVYSWPKNWKNIL,2.07
4,KEHVPTWLQNTHVYSWPKNTKNIL,2.96
5,KEHVPTWLQNTHVYSWPKNEKNIL,2.54
6,KEHVPTWLQNTHVYSWPKNHKNIL,2.21
7,KEHVPTWLQNTHVYSWPKNQKNIL,2.25
8,KEHVPTWLQNTHVYSWPKNAKNIL,1.94
9,KEHVPTWLQNTHVYSWPKNGKNIL,2.18
10,KEHVPTWLQNTHVYSWPKNMKNIL,1.58
11,KEHVPTWLQNTHVYSWPKNFKNIL,1.59
12,KEHVPTWLQNTHVYSWPKNRKNIL,2.29
13,KEHVPTWLQNTHVYSWPKNYKNIL,1.81
14,KEHVPTWLQNTHVYSWPKNCKNIL,1.89
15,KEHVPTWLQNTHVYSWPKNDKNIL,2.31
16,KEHVPTWLQNTHVYSWPKNNKNIL,2.02
17,KEHVPTWLQNTHVYSWPKNIKNIL,3.38
18,KEHVPTWLQNTHVYSWPKNVKNIL,1.99
19,KEHVPTWLQNTHVYSWPKNSKNIL,2.64
20,KEHVPTWLQNTHVYSWPKNLKNIL,1.74
